Measurements reported in patent publication US20260125469A1 (Hoffmann-La Roche, published 2026).

Legend:
[1] = target: T1, Human CD3ε stalk-Fc(knob)-Avi/CD3δ stalk-Fc(hole) (human); test: SPR, monovalent IgG captured by anti-PG antibody, antigen as analyte, 25°C
T1 construct: Heterodimer of CD3 delta and CD3 epsilon ectodomains fused to human Fc with knob-into-hole; also called human CD3ε/δ; CD3 antigen

[2] = target: T1, Human CD3ε stalk-Fc(knob)-Avi/CD3δ …; test: SPR on immobilized human CD3ε/δ after stress, relative to sample kept at -80°C pH 6
Protocol: All SPR experiments were performed on a Biacore T200 instrument (GE Healthcare) at 25° C. with HBS-P+ (10 mM HEPES, 150 mM NaCl pH 7.4, 0.05% Surfactant P20) as running and dilution buffer. Biotinylated human CD3ε/δ (see Example 3, SEQ ID NOs 41 and 42) as well as biotinylated anti-huIgG (Capture Select, Thermo Scientific, #7103262100) were immobilized on a Series S Sensor Chip SA (GE Healthcare, #29104992), resulting in surface densities of at least 1000 resonance units (RU). Anti-CD3 antibodies with a concentration of 2 μg/ml were injected for 30 s at a flow rate of 5 μl/min, and dissociation was monitored for 120 s. The surface was regenerated by injecting 10 mM glycine pH 1.5 for 60 s. Bulk refractive index differences were corrected by subtracting blank injections and by subtracting the response obtained from a blank control flow cell. For evaluation, the binding response 5 seconds after injection end was taken. To normalize the binding signal, the CD3 binding was divided by the anti-huIgG response (the signal (RU) obtained upon capture of the CD3 antibody on the immobilized anti-huIgG antibody). The relative binding activity was calculated by referencing each temperature stressed sample to the corresponding, non-stressed sample.
The experiment was performed as described in Example 4, using the monovalent IgG molecules prepared in Example 19.

[3] = target: T1, Human CD3ε stalk-Fc(knob)-Avi/CD3δ …; test: SPR, monovalent IgG captured by anti-PG antibody, antigen as analyte, 25°C; remark: listed apart in the source
Protocol: (§1) SPR experiments were performed as described in Example 3, with the monovalent IgG molecules prepared in Example 19.
(§2) To analyze the interaction to CD3, IgG molecules were captured for 240 s at 50 nM with a flow rate of 5 μl/min. Human and cynomolgus CD3F stalk-Fc(knob)-Avi/CD36-stalk-Fc(hole) were passed at a concentration of 0.061-250 nM with a flow rate of […] through the flow cells for 300 s. The dissociation was monitored for 800 s.

[4] = target: T2, Cynomolgus CD3ε stalk-Fc(knob)-Avi/CD3δ stalk-Fc(hole) (cynomolgus); test: as above
T2 construct: also called cynomolgus CD3ε/δ
Protocol: as §1, §2

fold higher binding half-life than CD3orig [1]: > 2 fold | binding activity [%] after 2 weeks at pH 6.0/40°C [2]: 98% | binding activity [%] after 2 weeks at pH 7.4/37°C [2]: 95% | Kd [3]: 0.771 nM | koff [3]: 0.00133 s⁻¹ | kon [3]: 1.73e+06 M⁻¹ s⁻¹ | t1/2 [3]: 8.69 min | Kd [4]: 0.403 nM | koff [4]: 0.00104 s⁻¹ | kon [4]: 2.6e+06 M⁻¹ s⁻¹ | t1/2 [4]: 11.1 min
B1: anti-CD3 antibody clone P033.078 in monovalent IgG format (antibody)
heavy: not shown
chain: DKTHTCPPCPAPEAAGGPSVFLFPPKPKDTLMISRTPEVTCVVVDVSHEDPEVKFNWYVDGVEVHNAKTKPREEQYNSTYRVVSVLTVLHQDWLNGKEYKCKVSNKALGAPIEKTISKAKGQPREPQVCTLPPSRDELTKNQVSLSCAVKGFYPSDIAVEWESNGQPENNYKTTPPVLDSDGSFFLVSKLTVDKSRWQQGNVFSCSVMHEALHNHYTQKSLSLSP
light: EVQLLESGGGLVQPGGSLRLSCAASGFTFESYAMNWVRQAPGKGLEWVSRIRSKYNEYATYYADSVKGRFTISRDDSKNTLYLQMNSLRAEDTAVYYCVRASNFPSSFVSYFGYWGQGTLVTVSSASVAAPSVFIFPPSDEQLKSGTASVVCLLNNFYPREAKVQWKVDNALQSGNSQESVTEQDSKDSTYSLSSTLTLSKADYEKHKVYACEVTHQGLSSPVTKSFNRGEC
notes: also called monovalent IgG P033.078
